Source: paper PMC3646955

Key:
Assay in all cases: purified protein
Type in all cases: biochemical, Serratia marcescens
[1] = tested on: CN[C@@H]1[C@H](O)[C@H](NC)[C@H]2O[C@@]3(O)C(=O)C[C@@H](C)O[C@H]3O[C@@H]2[C@H]1O; details: 200 μM ATP, 50 mM Tris-HCl pH 7.5, 10 mM MgCl2, 50 mM KCl, 25 °C
[2] = tested on: Nc1ccn([C@@H]2O[C@H](COP(=O)(O)OP(=O)(O)OP(=O)(O)O)[C@@H](O)[C@H]2O)c(=O)n1; details: 750 μM SPT, 50 mM Tris-HCl pH 7.5, 10 mM MgCl2, 50 mM KCl, 25 °C
[3] = tested on: O=P(O)(O)OP(=O)(O)OP(=O)(O)OC[C@H]1O[C@@H](n2cnc3c(O)ncnc32)[C@H](O)[C@@H]1O; details: 750 μM SPT, 50 mM Tris-HCl pH 7.5, 10 mM MgCl2, 50 mM KCl, 25 °C
[4] = tested on: O=c1ccn([C@@H]2O[C@H](COP(=O)(O)OP(=O)(O)OP(=O)(O)O)[C@@H](O)[C@H]2O)c(=O)[nH]1; details: 750 μM SPT, 50 mM Tris-HCl pH 7.5, 10 mM MgCl2, 50 mM KCl, 25 °C
[5] = tested on: CCN[C@@H]1C[C@H](N)[C@@H](O[C@H]2OC(CN)=CC[C@H]2N)[C@H](O)[C@H]1O[C@H]1OC[C@](C)(O)[C@H](NC)[C@H]1O; details: 500 μM acetyl-CoA
[6] = tested on: CN[C@@H]1[C@@H](O)[C@@H](O[C@@H]2[C@@H](O)[C@H](O[C@H]3OC(CN)=CC[C@H]3N)[C@@H](N)C[C@H]2N)OC[C@]1(C)O; details: 500 μM acetyl-CoA
[7] = tested on: NC[C@@H]1O[C@H](O[C@H]2[C@@H](O)[C@H](O[C@@H]3[C@@H](O)[C@H](N)C[C@H](N)[C@H]3O[C@H]3O[C@H](CN)[C@@H](O)[C@H](O)[C@H]3N)O[C@@H]2CO)[C@H](N)[C@@H](O)[C@@H]1O; details: 500 μM acetyl-CoA, 50 mM HEPES pH 7.5
[8] = tested on: NC[C@H]1O[C@H](O[C@H]2[C@H](O)[C@@H](O[C@H]3O[C@H](CO)[C@@H](O)[C@H](N)[C@H]3O)[C@H](N)C[C@@H]2N)[C@H](N)C[C@@H]1O; details: 500 μM acetyl-CoA
[9] = tested on: NC[C@H]1O[C@H](O[C@H]2[C@H](O[C@@H]3O[C@H](CO)[C@@H](O)[C@H]3O)[C@@H](O)[C@H](N)C[C@@H]2N)[C@H](N)[C@@H](O)[C@@H]1O; details: 500 μM acetyl-CoA, 50 mM HEPES pH 7.5
[10] = tested on: NCC[C@H](O)C(=O)N[C@@H]1C[C@H](N)[C@@H](O[C@H]2O[C@H](CN)[C@@H](O)[C@H](O)[C@H]2O)[C@H](O)[C@H]1O[C@H]1O[C@H](CO)[C@@H](O)[C@H](N)[C@H]1O; details: 500 μM acetyl-CoA, 50 mM HEPES pH 7.5, AAC(6′) domain
[11] = 50 mM HEPES pH 7.5, AAC(6′) domain

Q: Which results are given for “CHis6-tagged ANT(3″)-Ii(1-266) (Serratia marcescens)”?
A: Km [1]: 0.123 ± 0.015 µM; kcat [1]: 5.13 ± 0.11 s⁻¹; kcat/Km [1]: 4.15e+07 ± 5.1e+06 M⁻¹ s⁻¹; Km [2]: 33.3 ± 5.6 µM; kcat [2]: 0.709 ± 0.04 s⁻¹; kcat/Km [2]: 21300 ± 3800 M⁻¹ s⁻¹; Km [3]: 12.6 ± 1.5 µM; kcat [3]: 0.481 ± 0.013 s⁻¹; kcat/Km [3]: 38100 ± 4500 M⁻¹ s⁻¹; Km [4]: 26.2 ± 5.7 µM; kcat [4]: 0.603 ± 0.047 s⁻¹; kcat/Km [4]: 23000 ± 5300 M⁻¹ s⁻¹

Q: What does the source list for “NHis6-tagged AAC(6′)-IId(267-463) (Serratia marcescens)”?
A: Km ([5]; 50 mM HEPES pH 7.5): 3.87 ± 0.90 µM; kcat ([5]; 50 mM HEPES pH 7.5): 3.21 ± 0.2 s⁻¹; kcat/Km ([5]; 50 mM HEPES pH 7.5): 829000 ± 200000 M⁻¹ s⁻¹; Km ([6]; 50 mM HEPES pH 7.5): 4.92 ± 1.14 µM; kcat ([6]; 50 mM HEPES pH 7.5): 5.35 ± 0.27 s⁻¹; kcat/Km ([6]; 50 mM HEPES pH 7.5): 1.09e+06 ± 260000 M⁻¹ s⁻¹; Km [7]: 32.1 ± 11.1 µM; kcat [7]: 11.1 ± 1 s⁻¹; kcat/Km [7]: 346000 ± 124000 M⁻¹ s⁻¹; Km ([8]; 50 mM HEPES pH 7.5): 14.8 ± 3.4 µM; kcat ([8]; 50 mM HEPES pH 7.5): 3.73 ± 0.25 s⁻¹; kcat/Km ([8]; 50 mM HEPES pH 7.5): 252000 ± 60000 M⁻¹ s⁻¹; Km [9]: 69.3 ± 4.5 µM; kcat [9]: 5.7 ± 0.12 s⁻¹; kcat/Km [9]: 82200 ± 5600 M⁻¹ s⁻¹

Q: “NHis10-tagged ANT(3″)-Ii/AAC(6′)-IId (Serratia marcescens)” was tested. Which Km [5, 11] did it give?
A: 1.77 ± 0.41 µM

Q: And the kcat [5, 11]?
A: 1.91 ± 0.08 s⁻¹

Q: And the kcat/Km [5, 11]?
A: 1.08e+06 ± 250000 M⁻¹ s⁻¹

Q: And the Km [6, 11]?
A: 2.20 ± 0.60 µM

Q: And the kcat [6, 11]?
A: 2.93 ± 0.16 s⁻¹

Q: And the kcat/Km [6, 11]?
A: 1.33e+06 ± 370000 M⁻¹ s⁻¹

Q: What about the Km [10] of the same substance?
A: 0.556 ± 0.130 µM

Q: What about the kcat [10] of the same substance?
A: 2.92 ± 0.1 s⁻¹

Q: What about the kcat/Km [10] of the same substance?
A: 5.25e+06 ± 1.25e+06 M⁻¹ s⁻¹

Q: And the Km [8, 11]?
A: 7.92 ± 0.53 µM

Q: What about the kcat [8, 11] of the same substance?
A: 3.84 ± 0.07 s⁻¹

Q: What about the kcat/Km [8, 11] of the same substance?
A: 485000 ± 34000 M⁻¹ s⁻¹
